Consider one molecule from PMC9010429, “Validation of a small molecule inhibitor of PDE6D-RAS interaction with favorable anti-leukemic effects” (Blood Cancer Journal, 2022).

This experiment addresses Recombinant human Rac1 (Q2-L177) (human, UniProt P63000 2-177). The experiment is described as follows: AlphaScreen or HTRF; 30 nM His-Rac1 pre-incubated with compound 30 min at room temperature, then 300 nM FLAG-Tiam1, 2 nM anti-His-Eu3+, 20 nM anti-FLAG-XL665; 50 mM Hepes pH 7.6, 100 mM NaCl, 1 mM DTT, 10 mM MgCl2, 0.1% Nonidet P-40; titration of NSC23766, DW0069 or DW0254. The following applies: both partners purified. (In general: Bead proximity is the source of the signal in Alpha formats.)

B1: Truncated recombinant human Tiam1 (R1033-E1406) (domain or fragment)
chain: RQLSDADKLRKVICELLETERTYVKDLNCLMERYLKPLQKETFLTQDELDVLFGNLTEMVEFQVEFLKTLEDGVRLVPDLEKLEKVDQFKKVLFSLGGSFLYYADRFKLYSAFCASHTKVPKVLVKAKTDTAFKAFLDAQNPKQQHSSTLESYLIKPIQRILKYPLLLRELFALTDAESEEHYHLDVAIKTMNKVASHINEMQKIHEEFGAVFDQLIAEQTGEKKEVADLSMGDLLLHTTVIWLNPPASLGKWKKEPELAAFVFKTAVVLVYKDGSKQKKKLVGSHRLSIYEDWDPFRFRHMIPTEALQVRALASADAEANAVCEIVHVKSESEGRPERVFHLCCSSPESRKDFLKAVHSILRDKHRRQLLKTE
notes: human Tiam1, residues R1033-E1406, pTriIJ-HV vector; also called FLAG-tagged Tiam1; not shown: FLAG, N-terminal, kept
B1: the binding result is “binds”.
